Common to all, as to conditions: both partners purified
Test [1] addresses T1, Pf12 labelled with DyLight 488 (Plasmodium falciparum (sequence as 3D7), DyLight 488 (N-hydroxysuccinimide ester), about 2.4 dye per protein).
T1 construct: Pf12, Plasmodium falciparum 6-cysteine protein; The FRET methods say only 'Pf12'; also called Pf12-DL488
T1 chain: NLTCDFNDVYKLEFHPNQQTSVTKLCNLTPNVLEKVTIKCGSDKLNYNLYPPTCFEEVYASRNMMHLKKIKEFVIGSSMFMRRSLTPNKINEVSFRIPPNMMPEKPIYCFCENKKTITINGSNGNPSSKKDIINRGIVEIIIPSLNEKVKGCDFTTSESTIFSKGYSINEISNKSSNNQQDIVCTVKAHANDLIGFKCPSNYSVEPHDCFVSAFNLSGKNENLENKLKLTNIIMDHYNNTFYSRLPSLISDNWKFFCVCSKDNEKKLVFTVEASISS
Description: FRET or BRET; Pf12-DL488 and Pf41-DL594 mixed 1:1 with five-fold excess of nanobody; FRET signal relative to the no-nanobody control. (In general: Bioluminescence resonance energy transfer reports proximity on the nanometre scale.)

Test [2] addresses T2, Pf12 D1D2 (residues 28-304), untagged (Plasmodium falciparum, UniProt C6KSX0).
T2 construct: Pf12, Plasmodium falciparum 6-cysteine protein, residues N28-S304 (domains D1 and D2); lacks the signal peptide and the GPI-anchor site; After TEV cleavage three residues, GAS, remain at the N-terminus as cloning artefacts; N-glycosylation sites kept; treated with PNGase F before crystallisation; also called Pf12 wildtype; source: Spodoptera frugiperda 21 cells, secreted into growth media, …
In words: BLI; Octet RED96e; nanobodies loaded on NTA sensors; untagged Pf12 or Pf41 (6-200 nM) or their domains in solution; PBS pH 7.4, 0.1% BSA, 0.05% TWEEN-20, 25°C; global 1:1 fit. (Biolayer interferometry detects binding as a change in optical thickness at a sensor tip.)

Test [3] concerns the target T3, Pf41 D1D2 (residues 21-368), untagged (Plasmodium falciparum, UniProt Q8I1Y0).
T3 construct: Pf41, Plasmodium falciparum 6-cysteine protein, residues K21-S368 (D1 with the inserted-domain-like region ID, and D2); lacks the signal peptide and ten C-terminal residues; After TEV cleavage three residues, GAS, remain at the N-terminus as cloning artefacts; N-glycosylation sites kept; treated with PNGase F before crystallisation; also called Pf41 wildtype; source: Spodoptera frugiperda 21 …
The description is as above.

For test [4], the target named is T4, Pf41 D1D2 (residues 21-368), untagged (Plasmodium falciparum, UniProt Q8I1Y0 21-368).
T4 construct: Pf41, Plasmodium falciparum 6-cysteine protein, residues K21-S368 (D1 with the inserted-domain-like region ID, and D2); lacks the signal peptide and ten C-terminal residues; After TEV cleavage three residues, GAS, remain at the N-terminus as cloning artefacts; N-glycosylation sites kept; treated with PNGase F before crystallisation; also called Pf41 wildtype; source: Spodoptera frugiperda 21 …
T4 sequence (looked up): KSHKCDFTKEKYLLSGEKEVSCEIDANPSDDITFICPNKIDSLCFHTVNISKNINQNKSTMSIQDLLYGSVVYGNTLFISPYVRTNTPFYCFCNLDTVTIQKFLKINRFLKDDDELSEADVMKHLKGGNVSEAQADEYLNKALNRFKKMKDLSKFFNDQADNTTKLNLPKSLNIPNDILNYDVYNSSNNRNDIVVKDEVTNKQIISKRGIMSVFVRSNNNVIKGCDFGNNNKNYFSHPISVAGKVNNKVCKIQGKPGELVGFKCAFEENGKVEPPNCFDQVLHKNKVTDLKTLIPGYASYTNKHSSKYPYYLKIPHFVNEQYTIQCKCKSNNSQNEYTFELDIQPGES
In words: AUC; sedimentation velocity, 20°C, 50 000 rpm, absorbance at 280 nm, c(s) analysis with SEDFIT.

Test [5] has as its target T5, octa-histidine tagged Pf41 D1D2 (residues 21-368) (Plasmodium falciparum, UniProt Q8I1Y0 21-368).
T5 construct: Pf41, Plasmodium falciparum 6-cysteine protein, residues K21-S368; TEV-cleavable tag left on; loaded on NTA sensors; also called tagged wildtype Pf41; source: Spodoptera frugiperda 21 cells, secreted into growth media, purified as tagged protein (Ni-IMAC, SEC); not shown: His8, N-terminal, kept
T5 sequence: T4 sequence (looked up)
Description: BLI; Octet RED96e; octa-histidine tagged Pf41 loaded on NTA sensors; untagged Pf12 wildtype, mutant or single domain 31-1000 nM; PBS pH 7.4, 0.1% BSA, 0.05% TWEEN-20, 25°C; read-out relative maximum response against wildtype.

The target in test [6] is T6, Pf41 D2 (residues I242-S368) (Plasmodium falciparum 3D7, UniProt Q8I1Y0).
T6 construct: Pf41, Plasmodium falciparum, C-terminal 6-cys domain D2, residues I242-S368; also called Pf41 D2 domain; source: Spodoptera frugiperda 21 cells, purified by the same protocol as Pf41 D1D2; not shown: His8, N-terminal, cleaved
In words: BLI; Octet RED96e; nanobodies loaded on NTA sensors; untagged Pf12 or Pf41 (6-200 nM) or their domains in solution; PBS pH 7.4, 0.1% BSA, 0.05% TWEEN-20, 25°C; global 1:1 fit.

The target in test [7] is T7, Pf12 D2 (residues E174-S304) (Plasmodium falciparum, UniProt C6KSX0).
T7 construct: Pf12, Plasmodium falciparum, C-terminal 6-cys domain D2, residues E174-S304; also called Pf12 D2 domain; source: Spodoptera frugiperda 21 cells, purified by the same protocol as Pf12 D1D2; not shown: His8, N-terminal, cleaved
The description is as above.

Residue numbers refer to the chain shown, from its start. Where only a bound is given, the exact number is not on record here.

Data on 8 molecules can be found in paper PMC8930183, “Structure of the Pf12 and Pf41 heterodimeric complex of Plasmodium falciparum 6-cysteine proteins” (FEMS Microbes, 2022).

B1: nanobody H9 (VHH)
VHH: QVQLQESGGGLVQPGGSLRLSCAASGFTLDYYAIGWFRQAPGKEREGVSCIMSSDGSTYYADSVKGRFTISRDNAVNTVYLQMNGLKPEDTAVYYCATDKIVCGSGFIVDYGTDYRGKGTQVTVSS
notes: alpaca, immunised with Pf12-Pf41 complex; Pf12-specific; source: E. coli WK6, periplasmic extract, purified (HisTrap, SEC)
On to B1, for which, in test [1], the “percent reduction of the Pf12-Pf41 FRET signal” value (“percent reduction” below) was around 90%. This molecule also came in with a Kd in test [2] below 0.01 nM. In addition, in test [3], the binding result was “no binding”.

B2: Pf12 D1D2 (residues 28-304), untagged (domain or fragment, Plasmodium falciparum, UniProt C6KSX0 28-304, looked up)
chain: T1 chain
notes: Pf12, Plasmodium falciparum 6-cysteine protein, residues N28-S304 (domains D1 and D2); lacks the signal peptide and the GPI-anchor site; After TEV cleavage three residues, GAS, remain at the N-terminus as cloning artefacts; N-glycosylation sites kept; treated with PNGase F before crystallisation; also called Pf12 wildtype; source: Spodoptera frugiperda 21 cells, secreted into growth media, …
As for B2, the binding result in test [4] and in test [5] was “binds” throughout.

B3: nanobody A6 (VHH)
VHH: QVQLQESGGGLVQPGGSLRLSCAASGGTIRSDGMGWFRQVPKKEREFVGMITYMGPVYTADSVEGRFAISRDNVKNTVYLQMNNLQPEDTAVYYCAVHVGGIYYYEGSYEYWGQGTQVTVSS
notes: alpaca, immunised with Pf12-Pf41 complex; Pf41-specific; source: E. coli WK6, periplasmic extract, purified (HisTrap, SEC)
For the molecule B3, the binding result in test [3] is listed as “binds”; in test [6], “no binding”.

B4: nanobody G11 (VHH)
VHH: B3 VHH with G33S, E64K, A68T, T90A, V99I, G100S, I102L, G107A, E110K
notes: as for B3
Take B4: the binding result in test [3] is listed as “binds”; in test [6], “no binding”.

B5: nanobody G12 (VHH)
VHH: B3 VHH with G33S, I51L, E64K, E88D, G100S, I102V, G107D, E110R
notes: as for B3
Turning to B5, the binding result in test [3] is reported as “binds”; in test [6], “no binding”.

B6: nanobody G7 (VHH)
VHH: QVQLQESGGGLVQAGGSLRLSCAASGRTFSSYGMGWFRQAPGTEREFVAAISWSGDSTYYADSVKGRFTISIDKAKNTVYLQMNSLKPEDTAVYYCAADHALVVGGTYNYWGQGTQVTVSS
notes: alpaca, immunised with Pf12-Pf41 complex; Pf12-specific; also called Nb G7; source: E. coli WK6, periplasmic extract, purified (HisTrap, SEC)
With B6, in test [1], the “percent reduction” value is around 80%. In test [2], this molecule came in with a Kd of around 25 nM. The binding result in test [3] is on record as “no binding”.

B7: nanobody A11 (VHH)
VHH: QVQLQESGGGLVQPGGSLRLSCAASGFTFDDYAIGWFRQAPGKEREGVSCIMSSDGSAYYADSVKGRFTISRDNAKNTVYLQMNSLRPEDTANYYCATDKIVCSTGFIVDYGMHYGGKGTQVTVSS
notes: as for B1
For B7, the “percent reduction” value in test [1] is around 90%. In addition, the binding result in test [2] is “binds”; in test [3], “no binding”; in test [7], “binds”.

B8: nanobody A3 (VHH)
VHH: QVQLQESGGGLVQAGGSLRLSCAASGRTFSNYAMGWFRQAPGKEREFVAAITWSGDSTYYGDSVKGRFTISRDNAKSTAYLQMNSLKPEDTAVYYCAADEAVVTTTLQWDYWGQGTQVTVSS
notes: as for B1
Take B8: in test [1], the “percent reduction” value is around 90%. The figures for the binding result in test [2], in test [3] and in test [7] were “binds”, “no binding” and “binds”, respectively.

By Kd is commonly meant the concentration at which binding is half-saturated. A low value points to higher affinity.
